# Laboratory results from US20110135573A1, “METALLOPROTEINASE 9 AND METALLOPROTEINASE 2 BINDING PROTEINS” (DYAX CORP., priority 2009, published 2011).
# Numbering of substitutions follows the chain as printed.
# B1: M0299-A12: affinity matured variant of M237-D02, sFab (antibody, V domains shown)
# VH: EVQLLESGGGLVQPGGSLRLSCAASGFTFSHYPMWWVRQAPGKGLEWVSYISSSGGGTFYADSVKGRFTISRDNSKNTLYLQMNSLRAEDTAVYYCAKDRAYGDYVGWNGFDYWGQGTLVTVSS
# VL: QDIQMTQSPATLSLSPGERATLSCRASQSISSFLAWYQQKPGQAPRLLIYDASYRATGIPARFSGSGSGTDFTLTISSLEPEDYAVYYCQQRGNWPITFGQGTRLEIK
# B2: M0274-G08: affinity matured variant of M237-D02, sFab (antibody, V domains shown)
# VH: B1 VH with H31V, P33D, Y50V, S52Y, S53P, G57A, F59Y
# VL: B1 VL
# B3: M0273-G07: affinity matured variant of M237-D02, sFab (antibody, V domains shown)
# VH: B1 VH with P33D, Y50V, S52Y, S53P, G57P, F59Y
# VL: B1 VL
# B4: M0272-H08: affinity matured variant of M237-D02, sFab (antibody, V domains shown)
# VH: B1 VH with H31A, P33D, Y50V, S52Y, S53P, G57T
# VL: B1 VL
# B5: M0256-D11: affinity matured variant of M237-D02, sFab (antibody, V domains shown)
# VH: B1 VH with P33D, Y50V, S52Y, G57P
# VL: B1 VL
# B6: M0275-E12: affinity matured variant of M237-D02, sFab (antibody, V domains shown)
# VH: B1 VH with P33D, Y50V, S52Y, G57F, F59G
# VL: B1 VL
# B7: M0273-C10: affinity matured variant of M237-D02, sFab (antibody, V domains shown)
# VH: B1 VH with H31F, S52Y, S53P, G57A
# VL: B1 VL
# B8: M0273-B10: affinity matured variant of M237-D02, sFab (antibody, V domains shown)
# VH: B1 VH with H31K, P33A, W35I, Y50W, S52P, S53P, G57Y, F59S
# VL: B1 VL
# B9: M0301-A09: affinity matured variant of M237-D02, sFab (antibody, V domains shown)
# VH: B1 VH with H31Y, P33D, Y50V, S52Y, S53P, G57Y, F59A
# VL: B1 VL
# B10: M0275-D03: affinity matured variant of M237-D02, sFab (antibody, V domains shown)
# VH: EVQLLESGGGLVQPGGSLRLSCAASGFTFSQYDMWWVRQAPGKGLEWVSVIYPSGTTFYADSVKGRFTISRDNSKNTLYLQMNSLRAEDTAVYYCAKDRAYGDYVGWNGFDYWGQGTLVTVSS
# VL: B1 VL
# B11: M0273-A11: affinity matured variant of M237-D02, sFab (antibody, V domains shown)
# VH: B1 VH with H31R, P33D, Y50V, S53P, G57A
# VL: B1 VL
# Biological target: T1, mouse MMP-2 (Mus musculus, UniProt P33434)
# T1 construct: purchased R&D Systems 924-MP-010
# T1 sequence (P33434 110-662): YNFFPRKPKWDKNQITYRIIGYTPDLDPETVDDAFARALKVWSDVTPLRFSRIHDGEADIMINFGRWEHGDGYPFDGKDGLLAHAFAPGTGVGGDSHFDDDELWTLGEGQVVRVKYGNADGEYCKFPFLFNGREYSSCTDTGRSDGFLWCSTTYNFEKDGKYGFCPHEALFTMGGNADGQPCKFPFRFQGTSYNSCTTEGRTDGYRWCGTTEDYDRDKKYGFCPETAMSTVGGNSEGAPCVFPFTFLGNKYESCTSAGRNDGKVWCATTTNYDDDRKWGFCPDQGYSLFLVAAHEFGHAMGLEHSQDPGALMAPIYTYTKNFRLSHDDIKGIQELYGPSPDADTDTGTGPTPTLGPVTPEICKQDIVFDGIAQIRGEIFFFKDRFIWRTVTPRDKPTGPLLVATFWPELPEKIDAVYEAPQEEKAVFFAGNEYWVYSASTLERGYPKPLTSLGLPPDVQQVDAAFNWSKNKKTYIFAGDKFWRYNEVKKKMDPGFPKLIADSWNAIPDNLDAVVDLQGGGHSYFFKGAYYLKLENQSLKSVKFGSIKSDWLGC
# Assay: Enzyme inhibition assay (single point inhibition, IC50/Ki,app), substrate M-2350
# Type: biochemical
# Conditions: medium-scale sFab; Table 10
# Protocol: 343 unique sFabs from the anti-MMP-9/-2 M237-D02 affinity maturation campaign were discovered by phage display, produced in small scale (6 mL cultures in deep 24-well plates) and screened to select inhibitors with sub-nanomolar potency against the human enzymes and at least single-digit nanomolar potency toward the mouse orthologues. […] Isolates which appeared potent against both human and mouse MMP-2 were then subjected to IC50 analysis against hMMP-9. Sub-nanomolar inhibitors of hMMP-9 were further tested by IC50 analysis against mMMP-9 and h/m MMP-2, if sufficient small-scale sFab material was available. Thirteen potential h/m MMP-9/-2 sFab inhibitors were then produced in medium scale (250 mL cultures in flasks) and retested for h/m MMP-9 and h/m MMP-2 inhibition. Five potential lead candidates were reformatted as IgGs and retested in enzyme inhibition assays.
# Human MMP-9 (Biomol #SE-244), mouse MMP-9 (R&D Systems #909-MM-010), human MMP-2 (Biomol #SE-237) and mouse MMP-2 (R&D Systems #924-MP-010) were tested at final concentrations of 1 nM, 0.25-0.4 nM, 2.5 nM and 0.2 nM, respectively. Target enzymes were incubated with inhibitor for two hours at 30° C. in reaction buffer (50 mM Tris-HCl pH 7.5, 150 mM NaCl, 5 mM CaCl2, 0.05% Brij-35) in a total volume of 90 μL using a white 96 well plate (Costar). Reactions contained 5 μL of small-scale sFab stock solution (average concentration of 500 nM) for single point inhibition analysis or a concentration series of sFab/IgG for IC50 Ki,app determinations. Commercially available anti-MMP-9 antibodies (Millipore mAb 13415 and R&D Systems polyclonal IgG #AB911) were tested by IC50 analyses using 100 nM and 500 nM as the highest inhibitor concentrations, respectively. An anti-MMP-2 antibody (R&D Systems polyclonal IgG #AF902) was similarly tested with 200 nM as the highest inhibitor concentration. Reactions were initiated by the addition of 10 μL of a 10× concentrated stock of substrate, Mca-Lys-Pro-Leu-Gly-Leu-Dap(Dnp)-Ala-Arg-NH2, (Bachem M-2350), at final concentration of 10 μM and monitored at 30° C. in a Molecular Devices' Gemini fluorescence plate reader. The excitation and emission wavelengths were set at 328 nm and 393 nm, respectively. Kinetic data were acquired by the increase in fluorescence, and initial rates for each condition were plotted against the total inhibitor concentration. Reactions were performed in duplicates and all data replicates were plotted in a single graph and fit to the following equation^1:
# Where A=initial rate observed at each inhibitor concentration; Ao=initial rate observed in the absence of inhibitor; Ainh=initial rate observed for the enzyme inhibitor complex; Inh=concentration of inhibitor; E=total enzyme concentration (treated as a floated parameter); and Ki,app=apparent equilibrium inhibition constant.
row,Ki [nM],Molecule
1,30,B1
2,2.7,B2
3,22,B3
4,46,B4
5,4.2,B5
6,15,B6
7,18,B7
8,59,B8
9,21,B9
10,5.4,B10
11,32,B11

# Same assay, conditions: small-scale sFab; Table 10
row,Ki [nM],Molecule
1,30,B1
2,2.7,B2
3,22,B3
4,46,B4
5,4.2,B5
6,15,B6
7,18,B7
8,59,B8
9,21,B9
10,5.4,B10
11,32,B11
